From US20150147342A1 (published 2015)

Tests used:
Assay in all cases: SPR, hIgG1 antibody captured, room temp
[1] = target: T1, Dimeric fibrinogen-like domain of monkey (Macca fascicularis) Ang-2 conjugated to human IgG1 (monkey (Macca fascicularis))
T1 construct: also called Dimeric Monkey Ang-2FD; Monkey Ang-2FD-hFc
Description: (§1) Antibody was captured on a goat anti-mouse IgG polyclonal antibody surface, a goat anti-human κ polyclonal antibody (Southern Biotech, Birmingham, Ala.) surface or a goat anti-human IgG polyclonal antibody (Jackson Immuno Research Lab, West Grove, Pa.) surface created through direct amine coupling to a BIACORE™ CM5 sensor chip to form a captured antibody surface. […] Antigen-antibody binding and dissociation were monitored in real time at room temperature. Kinetic analysis was performed to calculate KD and half-life of antigen/antibody complex dissociation.
(§2) The above experiment was repeated using selected purified anti-Ang-2 antibodies cloned onto human IgG1.

[2] = target: T2, Dimeric fibrinogen-like domain of mouse (Mus musculus) Ang-2 conjugated to human IgG1 (mouse (Mus musculus))
T2 construct: also called Dimeric Mouse Ang-2FD; Mouse Ang-2FD-hFc
Description: as §1, §2

[3] = target: T3, Dimeric fibrinogen-like domain of human Ang-2 conjugated to human IgG1 (human)
T3 construct: also called Dimeric Human Ang-2FD; Human Ang-2FD-hFc
Description: as §1, §2

T2 sequence (chain, as listed by the source limits assumed): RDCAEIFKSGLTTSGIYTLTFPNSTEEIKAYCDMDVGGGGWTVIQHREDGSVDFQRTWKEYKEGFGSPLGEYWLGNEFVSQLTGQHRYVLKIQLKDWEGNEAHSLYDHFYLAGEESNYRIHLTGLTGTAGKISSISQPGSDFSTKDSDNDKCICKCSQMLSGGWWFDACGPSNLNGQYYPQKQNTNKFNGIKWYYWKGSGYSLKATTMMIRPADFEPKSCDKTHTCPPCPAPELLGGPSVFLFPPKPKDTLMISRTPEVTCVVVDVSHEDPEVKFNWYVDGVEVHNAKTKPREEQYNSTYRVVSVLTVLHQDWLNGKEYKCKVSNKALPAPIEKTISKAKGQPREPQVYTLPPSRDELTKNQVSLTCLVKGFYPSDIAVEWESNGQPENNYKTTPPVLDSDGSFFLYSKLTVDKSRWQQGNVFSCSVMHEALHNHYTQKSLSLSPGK
T1 sequence (chain, as listed by the source limits assumed): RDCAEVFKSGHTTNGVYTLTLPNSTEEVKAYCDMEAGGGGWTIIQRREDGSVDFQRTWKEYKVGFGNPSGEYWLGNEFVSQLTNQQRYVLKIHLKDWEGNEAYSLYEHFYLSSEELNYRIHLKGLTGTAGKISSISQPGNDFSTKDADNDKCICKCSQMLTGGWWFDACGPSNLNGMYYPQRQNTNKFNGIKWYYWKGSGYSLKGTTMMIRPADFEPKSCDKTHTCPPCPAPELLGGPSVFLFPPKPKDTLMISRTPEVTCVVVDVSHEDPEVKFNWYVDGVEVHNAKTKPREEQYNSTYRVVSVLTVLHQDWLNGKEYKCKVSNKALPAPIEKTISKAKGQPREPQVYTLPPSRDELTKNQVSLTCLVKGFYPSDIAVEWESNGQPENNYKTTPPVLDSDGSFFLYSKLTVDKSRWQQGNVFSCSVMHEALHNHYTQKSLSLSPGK
T3 sequence (chain, as listed by the source limits assumed): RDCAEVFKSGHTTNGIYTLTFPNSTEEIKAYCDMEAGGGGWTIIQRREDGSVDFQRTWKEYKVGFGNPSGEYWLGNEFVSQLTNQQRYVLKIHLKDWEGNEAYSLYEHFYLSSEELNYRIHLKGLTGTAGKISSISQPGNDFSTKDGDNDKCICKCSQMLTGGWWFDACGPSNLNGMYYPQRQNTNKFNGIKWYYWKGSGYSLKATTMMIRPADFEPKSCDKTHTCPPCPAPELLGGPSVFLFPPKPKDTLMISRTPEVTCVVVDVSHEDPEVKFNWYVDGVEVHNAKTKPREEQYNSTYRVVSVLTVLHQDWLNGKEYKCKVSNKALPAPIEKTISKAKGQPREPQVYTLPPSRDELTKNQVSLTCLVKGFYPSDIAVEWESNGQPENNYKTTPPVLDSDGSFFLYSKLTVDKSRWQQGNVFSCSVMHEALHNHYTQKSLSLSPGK

Row | Binder | Kd [1] | T1/2 [1] | Kd [2] | T1/2 [2] | Kd [3] | T1/2 [3]
1 | H1H750N (antibody, V domains shown) VH: QVKLVESGGGVVQPGRSLRVSCAASGFTFSSYGMHWVRQAPGKGLEWLAIIWYDGDNKYYSDSVKGRFTISRDNSKNTLYLQMNSLRAEDTAEYYCVRDASIASRFLDYWGQGTLVTVSS VL: DIQMTQSPSSLSASIGDRVTITCRATQDINNYLAWFQQKPGKAPKSLIYATSNLQSGVPSKFSGSGSGTDYTLTISSLQPEDFSTYYCQQYHSYPLTFGGGTKVEIK | 0.199 nM | 4.07 h | 0.218 nM | 2.02 h | 0.164 nM | 2.12 h
2 | H1H706P (antibody, V domains shown) VH: QVQLVESGGGVVQPGRSLRLSCAASGFTFSSYGMHWVRQAPDKGLEWVAVKWDDGSNKYYADSVKGRFTISRDNSKNTLYLQMNSLRAEDTAVYYCAREGPYDFYSGYGAFDIWGQGTMVTVSS VL: DIQMTQSPSSLSASVGDRVTITCRASQGISNYLAWFQQKPGKAPKSLIYAASSLQSGVPSKFSGSGSGTDFTLTISSLQPEDFATYYCQQYNSYPRTFGQGTKVEIK | 0.164 nM | 0.888 h | 0.357 nM | 0.783 h | 0.201 nM | 0.84 h
3 | H1H696P (antibody, V domains shown) VH: QVQLVESGGGLVKPGGSLRLSCAASGFTFSDYYMSWIRQAPGKGLEWVSYISYTGRTIYYADSVKGRFTISRDNAKNSLYLQMNSLRAEDTAVYYCARDTDYGDFFDYWGQGTLVTVSS VL: DIQMTQSPSSLSASVGDRVTITCRASQGISNYLAWFQQKPGKAPKSLIYAASSLQSGVPSKFSGSGSGTDFTLTISSLQPEDFATYYCQQYNSYPLTFGGGTKVEIK | 0.354 nM | 0.61 h | 0.402 nM | 0.627 h | 0.289 nM | 0.647 h
4 | H1H693P (antibody, V domains shown) VH: EVQLVESGGGLVQPGESLRLSCAASGFTFSSYAMSWVRQGPGKGLEWVSSISGSGGTTYYADSVEGRFTISRDNSKNTLYLHMNSLRAEDTAVYYCAKDFLDYSTYLAFDLWGQGTMVTVSS VL: DIQMTQSPSSVSASVGDRVTITCRASQGISSWLAWYQQKPGKAPKLLIYAASSLQSGVPSRFSGSGSGTDFTLTISSLQPEDFATYYCQQANSFPRTFGQGTKVEIK | 1.17 nM | 0.293 h | 0.446 nM | 1.06 h | 0.5 nM | 0.618 h
5 | H1H707P (antibody, V domains shown) VH: QVQLVESGGGVVQPGRSLRLSCAASGFTFSSYGMHWVRQAPDKGLEWVAVKWDDGSNKYYADSVKGRFTISRDNSKNTLYLQMNSLRAEDTAVYYCAREGPYDFYSGYGAFDIWGQGTMVTVSS VL: not shown | 0.283 nM | 0.372 h | 0.328 nM | 0.573 h | 0.262 nM | 0.443 h
6 | H1H743N (antibody, V domains shown) VH: EVQLLESGGGLVQPGGSLRLSCAASGFTFRKYAMSWVRQAPGKGLEWVSVISVSGGNTYYADSVKGRFTISRDNSKNTLYLQLNSLRAEDTAVYYCAKDLTDIVLMVYVDYWGQGTLVTVSS VL: DIQMTQSPSSVSASVGDRVTITCRASQDIDRWLAWYQQKPGKAPKLLIYAASSLQSGVPSRFSGSGSGTDFTLTISTLQPEDFATYYCQQANSLPFTFGGGTKVEIK | 0.0965 nM | 13 h | 0.124 nM | 3.88 h | 0.0882 nM | 4.23 h
7 | H1H724N (antibody, V domains shown) VH: QVQLVESGGGVVQPGRSLRLSCAASGFTLSNYGMHWVRQAPGKGLEWVAVIWHDGSNTYYADSVKGRFTISRDNSKNTLYLQMNSLRAEDTAVYYCTREGLDFWSGYYPNWFDPWGQGTLVTVSS VL: DIQMTQSPSSLSASVGDRVTITCRASQGIRNDLGWYQQKPGKAPKRLIYAASNLQGGVPSRFSGSGSGTEFTLTISSLQPEDFAAYYCLQHNIYPLTFGGGTKVEIK | 0.239 nM | 2.88 h | 0.185 nM | 1.4 h | 0.115 nM | 1.78 h
8 | H1H732N (antibody, V domains shown) VH: EVQLVESGGGLVRPGGSLRLSCAASGFTFTNAWMSWVRQAPGKGLEWIGQIKSKTDGGTIDYAAPVKGRFTVSRDDSENTLFLQMNSLKTEDTAVYYCAGNWNYVDFDYWGQGTLVTVSS VL: DIQMTQSPSSLSASVGDRVTITCRASQDIRNDLGWYQQKPGKAPKRLIYAASSLQGGVPSRFSGSGSGTEFTLTISSLQPEDFATYYCLQHNSYPFTFGPGTKVDIK | 0.439 nM | 1.97 h | 0.529 nM | 0.85 h | 0.386 nM | 0.95 h
9 | H1H728N (antibody, V domains shown) VH: EVQLVESGGDLVQPGGSLRLSCTASGFTFSKYWMTWVRQAPGRGLEWVANIKEDGNEKYFLDSVKGRFTISRDNAKDLLFLQMNSLRGEDTAVYYCVRDRGIEVAGPFDYWGQGTLVTVSS VL: DIQMTQSPSTLSASVGDRVTVTCRASQTIINWLAWYQQKPGKAPKLLISKASSLESGVPSRFSGSGSGTEFTLTISSLQPDDFATYYCQQYNRYWTFGQGTMVEIK | 2 nM | 1.28 h | 5.76 nM | 0.333 h | 0.162 nM | 1.35 h
10 | H1H730N (antibody, V domains shown) VH: EVQLVESGGGLVQPGGSLRLSCAASGFAFRSYWMTWVRQAPGKGLEWVANIQQDGNDKYYVDSVKGRFTISRDNAKNSLYLQMNSLRAEDTAVYYCARDTGIAEAGPFDYWGQGTLVTVSS VL: DIQMTQSPSTLSASVGDRVSITCRASQTIISWLAWYQQKPGKAPRLLIYKASSLESGVPSRFSGSGSGTEFTLTINSLQPDDFATYYCQQYNRYWTFGQGTKVEIK | 3.4 nM | 1.45 h | 0.0971 nM | 1.5 h | 0.234 nM | 1.03 h
11 | H1H690P (antibody, V domains shown) VH: EVQLVESGGGLVQPGESLRLSCAASGFTFSSYAMSWVRQGPGKGLEWVSSITGSGDTTYYADSVKGRFTISRDNSKNTLYLHMNSLRAEDTAVYYCAKDFLDYSTYLAFDLWGQGTMVTVSS VL: EIVLTQSPATLSLSPGERATLSCRASQSVSSYLTWYQQKPGQAPRLLSYDASNRATGIPARFSGSGSGTDFTLTISSLEPEDFAVYYCQQRSNWPLTFGGGTKVEIK | 0.0556 nM | 3.25 h | 0.0913 nM | 1.75 h | 0.079 nM | 2.1 h
12 | H1H742N (antibody, V domains shown) VH: DVQLLESGGDLVQPGGSLRLSCEASGFTFRNYVMIWVRQAPGKGLEWVSGISNSGGTTHYTDSVKGRFTISRDNSKNTLYLQINSLRAEDTAVYYCAKGYLDTSLIEGNWFDPWGQGTLVTVSS VL: NIVMTQSPLSLPVTPGEPASISCRSSQSLLHSNGFNYLNWFLQKPGQSPQLLIYLGSNRASGVPDKFSGSGSGTDFTLNINRVEAEDVGIYFCMQTLQTPLTFGGGTKVEIK | 0.683 nM | 1.55 h | 0.276 nM | 0.967 h | 0.186 nM | 1.08 h
13 | H1H749N (antibody, V domains shown) VH: QVQLVESGGGVVQPGRSLRLSCAASGFTFSSYGMHWVRQAPGKGLEWVAVIWYDEFNKYYADSVKGRFTISRDNSKNTLYLQMNSLRAEDTAVYYCARERESGYSYGFDYWGQGTLVTVSS VL: EIVMTQSPATLSVSPGERATLSCRAGQSVSSNLAWYQQKPGQAPRLLIYGASTRATGIPARFSGSGSGTEFTLTISSLQSEDFAVYYCQQYNNWWTFGQGTKVEIK | 0.407 nM | 2.38 h | 0.177 nM | 1.6 h | 0.118 nM | 1.82 h
14 | H1H695P (antibody, V domains shown) VH: QVQLVESGGGVVQPGRSLRLSCAASGFTFSSYGMHWVRQAPGKGLEWVAVMWYDETNKYYADSVKGRFTISRDNSKNTLYLQMNSLRAEDTAVYYCARYSGYEDYYHGMDVWGQGTTVTVS VL: EIVMTQSPATPSVSPGERATLSCRASQSISSNLAWYQQKPGQAPRLLIYGASTRATGIPARFSGSGSGTEFTLTISSLQSEDFAVYYCQHYNNWITFGQGTRLEIK | 0.44 nM | 1.4 h | 0.347 nM | 2.07 h | 0.245 nM | 2.45 h
15 | H1H704P (antibody, V domains shown) VH: QVQLVESGGDVVQPGRSLRLSCAASGFTFSSYGMHWVRQAPGKGLEWVAIIWYDGSNKYYADSVKGRFTISRDNSKNTLYLQMNSLRVEDTAVYSCARDFSISSRHFDYWGQGTLVTVSS VL: DIQMTQSPSSLSASVGDRVTITCRASQAINNYLAWFQQKPGKAPKSLIYATSNLQSGVPSQFSGSGSGTDYTLTISSLQPEDFATYYCQQYYIYPITFGQGTRLEIK | 0.818 nM | 0.558 h | 0.484 nM | 1.03 h | 0.331 nM | 1.43 h
16 | H1H691P (antibody, V domains shown) VH: EVQLVESGGGLVQPGRSLRLSCAASGFTFDDYAMHWVRQAPGKGLEWVSGISWNSGDIGYADSVKGRFTISRDNAKNSLYLQMNSLRAQDTALYYCAKAYGDYYYFYGMDVWGQGTTVTVS VL: EIVLTQSPGTLSLSPGERATLSCRASQSVSSSYLAWYQQKPGQAPRLLIFSASSRATGIPDRFSGSGSGTDFTLTISRLEPEDFAVYYCQQYDNSLTFGGGTKVEIK | 0.29 nM | 0.683 h | 0.22 nM | 0.73 h | 0.22 nM | 0.642 h
